Measured values: the Immune Epitope Database (IEDB)
Each block holds one sequence with its values, some of them ahead of it.

Assays:
[1] = target: HLA-B*48:01; experiment: IEDB peptide-MHC binding, purified MHC/direct/fluorescence; filed as Kd, often an IC50 or EC50 that approximates it; ≥ and ≤ were set here for values at or beyond the usual limits of such assays
[2] = target: HLA-B*27:05; experiment: as above
[3] = target: HLA-B*51:01; experiment: IEDB peptide-MHC binding, purified MHC/competitive/radioactivity; filed as Kd, often an IC50 or EC50 that approximates it; ≥ and ≤ were set here for values at or beyond the usual limits of such assays
[4] = target: HLA-B*53:01; experiment: as above
[5] = target: HLA-B*54:01; experiment: as above
[6] = target: HLA-B*35:01; experiment: as above
[7] = target: HLA-B*07:02; experiment: as above
[8] = target: HLA-A*03:01; experiment: IEDB peptide-MHC binding, purified MHC/competitive/fluorescence; filed as Kd, often an IC50 or EC50 that approximates it; ≥ and ≤ were set here for values at or beyond the usual limits of such assays
[9] = target: HLA-B*40:01; experiment: IEDB peptide-MHC binding, purified MHC/direct/fluorescence; filed as Kd, often an IC50 or EC50 that approximates it; ≥ and ≤ were set here for values at or beyond the usual limits of such assays
[10] = target: HLA-A*03:01; experiment: as above
[11] = target: HLA-B*08:01; experiment: as above
[12] = target: HLA-A*31:01; experiment: as above
[13] = target: HLA-B*15:01; experiment: as above
[14] = target: HLA-A*02:01; experiment: as above
[15] = target: HLA-A*26:01; experiment: as above
[16] = target: HLA-A*69:01; experiment: as above
[17] = target: HLA-A*01:01; experiment: as above
[18] = target: HLA-A*11:01; experiment: as above
[19] = target: HLA-B*07:02; experiment: as above
[20] = target: HLA-B*44:02; experiment: as above
[21] = target: HLA-B*58:01; experiment: as above
[22] = target: HLA-A*02:12; experiment: as above; settings: source organism: Ravn virus - Ravn, Kenya, 1987
[23] = target: HLA-A*02:01; experiment: IEDB peptide-MHC binding, purified MHC/competitive/radioactivity; filed as Kd, often an IC50 or EC50 that approximates it; ≥ and ≤ were set here for values at or beyond the usual limits of such assays; settings: source organism: Vaccinia virus WR
[24] = target: HLA-A*24:02; experiment: IEDB peptide-MHC binding, purified MHC/competitive/fluorescence; ≥ and ≤ were set here for values at or beyond the usual limits of such assays
[25] = target: HLA-A*02:01; experiment: IEDB peptide-MHC binding, purified MHC/competitive/fluorescence; filed as Kd, often an IC50 or EC50 that approximates it; ≥ and ≤ were set here for values at or beyond the usual limits of such assays; settings: source organism: Variola virus
[26] = target: HLA-A*02:06; experiment: IEDB peptide-MHC binding, purified MHC/competitive/radioactivity; filed as Kd, often an IC50 or EC50 that approximates it; ≥ and ≤ were set here for values at or beyond the usual limits of such assays; settings: source organism: Vaccinia virus WR
[27] = target: HLA-A*02:02; experiment: as above; settings: source organism: Vaccinia virus WR
[28] = target: HLA-A*02:03; experiment: as above; settings: source organism: Vaccinia virus WR
[29] = target: HLA-B*18:01; experiment: IEDB peptide-MHC binding, purified MHC/direct/fluorescence; filed as Kd, often an IC50 or EC50 that approximates it; ≥ and ≤ were set here for values at or beyond the usual limits of such assays
[30] = target: HLA-A*24:03; experiment: as above; settings: source organism: Vibrio cholerae
[31] = source organism: Mammarenavirus lassaense
[32] = source organism: West Nile virus
[33] = source organism: Mammarenavirus choriomeningitidis
[34] = source organism: Vaccinia virus WR
[35] = source organism: Coxiella burnetii
[36] = source organism: Ebola virus - Mayinga, Zaire, 1976
[37] = source organism: Triticum aestivum
[38] = source organism: SARS coronavirus Tor2
[39] = source organism: Vibrio cholerae
[40] = source organism: Lymphocytic choriomeningitis virus (strain WE)
[41] = source organism: Giardia lamblia ATCC 50803

Sequence: RKLLESQGR
Kd [1, 31]: ≥ 20000 nM
Kd [2, 31]: 451 nM

Sequence: LRWLVERRF
Kd [1, 32]: ≥ 20000 nM

Sequence: MPDCGMSVLA
Kd [3, 31]: 9180 nM
Kd [4, 31]: 442 nM
Kd [5, 31]: 105 nM
Kd [6, 31]: 92.2 nM
Kd [7, 31]: 3880 nM

Sequence: ETMEVVQQTR
Kd ([8]; source organism: Influenza A virus (A/Fort Monmouth/1/1947-mouse adapted(H1N1))): ≥ 20000 nM

Sequence: MVAWRVTMH
Kd ([8]; source organism: Toxoplasma gondii): 48.1 nM

Sequence: QLAFFVAGH
Kd ([8]; source organism: Yersinia pestis Antiqua): 198 nM

Sequence: FATCGLFAL
Kd [3, 33]: ≥ 27000 nM
Kd [4, 33]: 8690 nM
Kd [5, 33]: 6300 nM
Kd [6, 33]: 736 nM
Kd [7, 33]: 8620 nM

Sequence: YPFYVSPTEM
Kd [3, 34]: 1550 nM
Kd [4, 34]: 446 nM
Kd [5, 34]: 82 nM
Kd [6, 34]: 6.32 nM
Kd [7, 34]: 2060 nM

Sequence: NPTSETMYL
Kd [3, 34]: ≥ 60700 nM
Kd [4, 34]: 4.2 nM
Kd [5, 34]: ≥ 37500 nM
Kd [6, 34]: 59.2 nM
Kd [7, 34]: 116 nM

Sequence: KVYTMDGEY
Kd [8, 32]: 37.6 nM

Sequence: PEIRRWIIF
Kd [9, 35]: 5640 nM
Kd [10, 35]: ≥ 20000 nM
Kd [11, 35]: ≥ 20000 nM
Kd [12, 35]: ≥ 20000 nM
Kd [13, 35]: ≥ 20000 nM
Kd [14, 35]: ≥ 20000 nM
Kd [2, 35]: ≥ 20000 nM
Kd [15, 35]: ≥ 20000 nM
Kd [16, 35]: ≥ 20000 nM
Kd [17, 35]: ≥ 20000 nM
Kd [18, 35]: ≥ 20000 nM
Kd [19, 35]: ≥ 20000 nM
Kd [20, 35]: ≥ 20000 nM
Kd [21, 35]: ≥ 20000 nM

Sequence: IPFDDIVRTM
Kd [3, 34]: 8690 nM
Kd [4, 34]: 1020 nM
Kd [5, 34]: 4250 nM
Kd [6, 34]: 192 nM
Kd [7, 34]: 2940 nM

Sequence: LPESDLDKV
Kd [3, 34]: 6570 nM
Kd [4, 34]: 7280 nM
Kd [5, 34]: 2290 nM
Kd [6, 34]: ≥ 22600 nM
Kd [7, 34]: 7810 nM

Sequence: KPKFCLIDGM
Kd [3, 34]: ≥ 69600 nM
Kd [4, 34]: 11900 nM
Kd [5, 34]: 14500 nM
Kd [6, 34]: ≥ 22400 nM
Kd [7, 34]: 80.2 nM

Sequence: IISDLSIFI
Kd [22]: 69 nM
Kd [14, 36]: 3 nM
Kd [16, 36]: 32.3 nM

Sequence: IPVDLVKSSF
Kd [3, 34]: 5380 nM
Kd [4, 34]: 8.61 nM
Kd [5, 34]: 297 nM
Kd [6, 34]: 5.43 nM
Kd [7, 34]: 20.5 nM

Sequence: YLLFASMGFK
Kd [23]: 2570 nM
Kd [6, 34]: ≥ 69900 nM
Kd [7, 34]: ≥ 69600 nM

Sequence: VYKLDISEA
IC50 ([24]; source organism: Zaire ebolavirus): 44000 nM

Sequence: YHFDPVHHL
Kd [9, 35]: ≥ 20000 nM
Kd [10, 35]: ≥ 20000 nM
Kd [11, 35]: ≥ 20000 nM
Kd [12, 35]: ≥ 20000 nM
Kd [13, 35]: ≥ 20000 nM
Kd [14, 35]: ≥ 20000 nM
Kd [2, 35]: ≥ 20000 nM
Kd [15, 35]: ≥ 20000 nM
Kd [16, 35]: ≥ 20000 nM
Kd [17, 35]: ≥ 20000 nM
Kd [18, 35]: ≥ 20000 nM
Kd [19, 35]: ≥ 20000 nM
Kd [20, 35]: ≥ 20000 nM
Kd [21, 35]: ≥ 20000 nM

Kd [3, 37]: 2960 nM
Kd [4, 37]: ≥ 38300 nM
Kd [5, 37]: ≥ 87700 nM
Kd [6, 37]: ≥ 23900 nM
Kd [7, 37]: ≥ 26200 nM
Sequence: QPSSQVSF

Sequence: NPDNTIAVI
Kd [3, 34]: 1730 nM
Kd [4, 34]: 1.42 nM
Kd [5, 34]: 2210 nM
Kd [6, 34]: 2.65 nM
Kd [7, 34]: 233 nM

Kd [3, 37]: 10900 nM
Kd [4, 37]: 1340 nM
Kd [5, 37]: ≥ 54500 nM
Kd [6, 37]: 249 nM
Kd [7, 37]: ≥ 22600 nM
Sequence: YPQPQLPY

Sequence: QIFNIISYI
Kd [25]: 31.1 nM
Kd [26]: 1.78 nM
Kd [27]: 111 nM
Kd [28]: 15.1 nM

Sequence: RPRFDDAYNI
Kd [3, 34]: 3410 nM
Kd [4, 34]: 32.7 nM
Kd [5, 34]: 2380 nM
Kd [6, 34]: 15000 nM
Kd [7, 34]: 5.26 nM

Sequence: SPLFLIVAA
Kd [3, 38]: 12100 nM
Kd [4, 38]: ≥ 44700 nM
Kd [5, 38]: 2.52 nM
Kd [6, 38]: 1040 nM
Kd [7, 38]: 481 nM

Sequence: WEALDTMYV
Kd [29, 32]: 556 nM

Sequence: TPEQKAYVPA
Kd [3, 34]: ≥ 55200 nM
Kd [4, 34]: ≥ 45200 nM
Kd [5, 34]: 13.3 nM
Kd [6, 34]: 11000 nM
Kd [7, 34]: 1230 nM

Sequence: RYDYANLCQ
Kd [9, 39]: ≥ 20000 nM
Kd [10, 39]: ≥ 20000 nM
Kd [11, 39]: ≥ 20000 nM
Kd [30]: ≥ 20000 nM
Kd [12, 39]: ≥ 20000 nM
Kd [13, 39]: ≥ 20000 nM
Kd [14, 39]: ≥ 20000 nM
Kd [2, 39]: ≥ 20000 nM
Kd [15, 39]: ≥ 20000 nM
Kd [16, 39]: ≥ 20000 nM
Kd [17, 39]: ≥ 20000 nM
Kd [18, 39]: ≥ 20000 nM
Kd [19, 39]: ≥ 20000 nM
Kd [20, 39]: ≥ 20000 nM
Kd [21, 39]: ≥ 20000 nM

Sequence: KISGSFSPH
Kd ([8]; source organism: Cryptosporidium parvum Iowa II): 36.9 nM

Sequence: FRKGSSIGK
Kd ([1]; source organism: dengue virus type 1): ≥ 20000 nM

Sequence: EPVESCPLM
Kd [3, 40]: 1920 nM
Kd [4, 40]: 177 nM
Kd [5, 40]: ≥ 78100 nM
Kd [6, 40]: 26.7 nM
Kd [7, 40]: 5100 nM

Sequence: SYRNKPSIA
IC50 ([24]; source organism: Vaccinia virus): 43800 nM

Sequence: VPEFAKQYVL
Kd [3, 34]: 1550 nM
Kd [4, 34]: 85.2 nM
Kd [5, 34]: 1860 nM
Kd [6, 34]: 30.7 nM
Kd [7, 34]: 25.8 nM

Sequence: RLSVKTFVK
Kd ([8]; source organism: Francisella tularensis subsp. tularensis FSC198): 25.3 nM

Sequence: RLSVKTFVH
Kd ([8]; source organism: Coxiella burnetii RSA 493): 27.6 nM

Sequence: KLADMSIYC
Kd [9, 41]: ≥ 20000 nM
Kd [10, 41]: 4200 nM
Kd [11, 41]: ≥ 20000 nM
Kd [12, 41]: ≥ 20000 nM
Kd [13, 41]: 4000 nM
Kd [14, 41]: 42.7 nM
Kd [2, 41]: ≥ 20000 nM
Kd [15, 41]: ≥ 20000 nM
Kd [16, 41]: ≥ 20000 nM
Kd [17, 41]: ≥ 20000 nM
Kd [18, 41]: ≥ 20000 nM
Kd [19, 41]: ≥ 20000 nM
Kd [20, 41]: ≥ 20000 nM
Kd [21, 41]: ≥ 20000 nM

Sequence: HPLSINVSGV
Kd [3, 34]: ≥ 29600 nM
Kd [4, 34]: 18800 nM
Kd [5, 34]: 120 nM
Kd [6, 34]: ≥ 54200 nM
Kd [7, 34]: 3840 nM

Sequence: WHYDQENPY
Kd ([6]; source organism: Dengue virus 4 Philippines/H241/1956): 1560 nM

Sequence: TLYDRYLIK
Kd ([8]; source organism: Campylobacter lari RM2100): 10.9 nM

Sequence: PEDPVEIAL
Kd [9, 31]: 160 nM
Kd [29, 31]: ≥ 20000 nM
